The values that follow come from publication PMC9187738.

The target in assay [1] is hamster JUNO (hamster). Description: live imaging-based adhesion molecule (LIAM) assay; BHK cells, non-inducible expression (cytomegalovirus promoter); separately transfected cells mixed in equal amounts 4 h after transfection, incubated 20 h, imaged every 6 min for 12 h at 40x, 37 °C, 5% CO2; read-outs: accumulation at the cell interface and translocation to the opposite cell, % of contacting cell pairs.

For assay [2], the target named is mouse mCherry-JUNO (mouse) (UniProt Q9EQF4). Described as above.
Sequence of mouse mCherry-JUNO (mouse) (Q9EQF4 20-222): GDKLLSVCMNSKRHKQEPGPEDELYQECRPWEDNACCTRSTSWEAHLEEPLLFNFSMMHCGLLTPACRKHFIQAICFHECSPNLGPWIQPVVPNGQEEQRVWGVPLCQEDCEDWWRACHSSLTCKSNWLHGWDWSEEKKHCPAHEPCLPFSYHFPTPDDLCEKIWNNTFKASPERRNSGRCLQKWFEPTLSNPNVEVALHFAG
Assay [3] addresses hamster JUNO (hamster). The experiment in a line: live imaging-based adhesion molecule (LIAM) assay; HEK293T cells expressing IZUMO1 mixed with HEK293T cells expressing JUNO; read-out: accumulation at the interface of the cells, % of contacting cell pairs.
Assay [4] deals with human JUNO (human) (UniProt A6ND01). The experiment in a line: live imaging-based adhesion molecule (LIAM) assay; BHK cells, non-inducible expression (cytomegalovirus promoter); separately transfected cells mixed in equal amounts 4 h after transfection, incubated 20 h, imaged every 6 min for 12 h at 40x, 37 °C, 5% CO2; read-outs: accumulation at the cell interface and translocation to the opposite cell, % of contacting cell pairs.
Sequence of human JUNO (human) (A6ND01 20-228): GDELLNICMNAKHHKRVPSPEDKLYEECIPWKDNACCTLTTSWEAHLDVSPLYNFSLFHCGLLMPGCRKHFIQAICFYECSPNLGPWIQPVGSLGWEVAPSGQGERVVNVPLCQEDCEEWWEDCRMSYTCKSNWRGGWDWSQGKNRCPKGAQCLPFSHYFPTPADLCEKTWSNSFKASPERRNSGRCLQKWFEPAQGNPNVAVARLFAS

For assay [5], the target named is pig JUNO (pig). The assay is described as above.

Sequence of human IZUMO1 (Q8IYV9 22-350): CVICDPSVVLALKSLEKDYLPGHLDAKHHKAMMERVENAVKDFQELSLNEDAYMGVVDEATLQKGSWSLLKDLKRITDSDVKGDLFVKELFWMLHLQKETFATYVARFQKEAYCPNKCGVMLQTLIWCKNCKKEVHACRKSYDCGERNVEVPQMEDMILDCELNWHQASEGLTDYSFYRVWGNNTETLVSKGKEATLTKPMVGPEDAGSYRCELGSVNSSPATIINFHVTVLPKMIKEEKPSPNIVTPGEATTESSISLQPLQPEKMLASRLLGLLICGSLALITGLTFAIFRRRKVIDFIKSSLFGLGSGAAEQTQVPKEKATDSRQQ

As to hamster IZUMO1 (natural protein), in assay [1], the IZUMO1 accumulation (% of contacting cell pairs) turned out to be 77%, the IZUMO1 translocation (% of contacting cell pairs) worked out at 44%, the JUNO accumulation (% of contacting cell pairs) worked out at 16% and the JUNO translocation (% of contacting cell pairs) came to 28%. Also, in assay [2], the IZUMO1 accumulation (% of contacting cell pairs) was determined as 33% and the JUNO accumulation (% of contacting cell pairs) worked out at 25%.

For the substance “human IZUMO1 (from UniProt Q8IYV9 22-350) (natural protein)”, in assay [3], the IZUMO1 accumulation (% of contacting cell pairs) was determined as 9.3% and the JUNO accumulation (% of contacting cell pairs) was found to be 2.8%.

With pig IZUMO1 (natural protein), in assay [1], the IZUMO1 accumulation (% of contacting cell pairs) is 13% and the JUNO accumulation (% of contacting cell pairs) is 7.1%. Besides, in assay [4], the IZUMO1 accumulation (% of contacting cell pairs) is 48%, the IZUMO1 translocation (% of contacting cell pairs) was 3.2%, the JUNO accumulation (% of contacting cell pairs) stood at 49% and the JUNO translocation (% of contacting cell pairs) was found to be 32%. Besides, in assay [5], the IZUMO1 accumulation (% of contacting cell pairs) came to 24%.
